Results on one molecule are retold here after patent US20100076060A1.

The assay addresses OX40 (CD134) on mouse lymph node T cells (mouse) (UniProt P47741). Briefly: cell-based or functional assay.

B1: OX40 agonistic antibody (OX86) (antibody, from another filing, V domains shown)
VH: QVQLKESGPGLVQPSQTLSLTCTVSGFSLTGYNLHWVRQPPGKGLEWMGRMRYDGDTYYNSVLKSRLSISRDTSKNQVFLKMNSLQTDDTAIYYCTRDGRGDSFDYWGQGVMVTVSS
VL: DIVMTQGALPNPVPSGESASITCRSSQSLVYKDGQTYLNWFLQRPGQSPQLLTYWMSTRASGVSDRFSGSGSGTYFTLKISRVRAEDAGVYYCQQVREYPFTFGSGTKLEIK
Molecule B1 showed an interferon-gamma secretion (ELISA), after subtracting background of the negative control of 15 pg/mL.
